Data set [1] deals with T1, recombinant GST-fused VEGFR1#1 (codons 800-1000).
T1 chain: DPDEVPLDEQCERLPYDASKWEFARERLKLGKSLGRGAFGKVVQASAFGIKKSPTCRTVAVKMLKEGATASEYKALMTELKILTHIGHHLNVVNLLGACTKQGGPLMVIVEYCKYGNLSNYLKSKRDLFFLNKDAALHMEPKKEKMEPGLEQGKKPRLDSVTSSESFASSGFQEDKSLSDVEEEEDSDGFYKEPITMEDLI

The target in data set [2] is T2, HA-tagged VEGFR1 (human, UniProt P17948 800-1338, limits assumed).
T2 construct: also called HA-VEGFR1; cytoplasmic domain of VEGFR1; not shown: HA tag (pCMV-HA vector)
T2 sequence: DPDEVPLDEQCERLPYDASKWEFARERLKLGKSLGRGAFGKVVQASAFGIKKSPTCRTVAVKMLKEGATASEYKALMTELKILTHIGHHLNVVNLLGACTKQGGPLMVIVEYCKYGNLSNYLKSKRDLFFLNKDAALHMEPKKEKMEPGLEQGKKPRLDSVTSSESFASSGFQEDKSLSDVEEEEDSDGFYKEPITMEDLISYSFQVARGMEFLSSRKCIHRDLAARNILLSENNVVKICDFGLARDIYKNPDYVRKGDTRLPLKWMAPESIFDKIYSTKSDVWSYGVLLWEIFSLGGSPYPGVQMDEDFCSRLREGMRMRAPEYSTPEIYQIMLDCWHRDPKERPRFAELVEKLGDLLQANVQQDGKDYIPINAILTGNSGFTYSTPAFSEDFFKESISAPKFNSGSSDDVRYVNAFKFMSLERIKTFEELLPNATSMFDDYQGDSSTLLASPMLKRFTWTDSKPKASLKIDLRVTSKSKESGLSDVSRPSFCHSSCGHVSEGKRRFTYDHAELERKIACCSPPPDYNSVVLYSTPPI
The data set can be described thus: co-immunoprecipitation (anti-HA or anti-Flag IP, western blot), HEK293 cells. The source says:
FIG. 3 depicts the interaction between SMYD3 and VEGFR1. Part a depicts the interaction between SMYD3 and VEGFR1, examined by a co-immunoprecipitation assay using extract from HEK293 cells expressing HA-tagged SMYD3 and different regions of Flag-tagged VEGFR1 (VEGFR1#1, #2, and #3). Part b depicts the interaction of endogenous SMYD3 with VEGFR1. Whole cell extracts from SNU423, SW480, and MCF7 cells expressing both SMYD3 and VEGFR1 were precipitated with anti-SMYD3 antibody. The precipitants were immunoblotted with anti-VEGFR-1 antibody (upper panel) or anti-SMYD3 antibody (lower panel). Part c depicts the association of VEGFR1 with the SET domain of SMYD3. Wild type or deleted forms of Flag-tagged SMYD3 (N-20, delta 2, or delta 3) were co-expressed with HA-tagged VEGFR1 in HEK293 cells. IP was performed with either anti-HA or anti-Flag antibody, and the precipitants were analyzed by western blot analysis with anti-Flag (upper panel) or anti-HA (lower panel) antibody. Part d depicts the interaction of the cytoplasmic region of VEGFR1 with the SET domain of SMYD3 in vivo. Flag-tagged wild type or the SET domain of SMYD3 was co-expressed with HA-tagged VEGFR1 in HEK293 cells. Extracts from the cells were precipitated with anti-Flag (upper panel) or anti-HA (lower panel) antibodies, and the precipitants were analyzed by western blot analysis with anti-HA antibody. […]
(Immunoblotting shows a protein as a band on a membrane.)

The target in data set [3] is T3, HA-tagged SMYD3 (human, UniProt Q9H7B4 1-428).
T3 construct: also called ZNFN3A1; not shown: HA tag
T3 sequence: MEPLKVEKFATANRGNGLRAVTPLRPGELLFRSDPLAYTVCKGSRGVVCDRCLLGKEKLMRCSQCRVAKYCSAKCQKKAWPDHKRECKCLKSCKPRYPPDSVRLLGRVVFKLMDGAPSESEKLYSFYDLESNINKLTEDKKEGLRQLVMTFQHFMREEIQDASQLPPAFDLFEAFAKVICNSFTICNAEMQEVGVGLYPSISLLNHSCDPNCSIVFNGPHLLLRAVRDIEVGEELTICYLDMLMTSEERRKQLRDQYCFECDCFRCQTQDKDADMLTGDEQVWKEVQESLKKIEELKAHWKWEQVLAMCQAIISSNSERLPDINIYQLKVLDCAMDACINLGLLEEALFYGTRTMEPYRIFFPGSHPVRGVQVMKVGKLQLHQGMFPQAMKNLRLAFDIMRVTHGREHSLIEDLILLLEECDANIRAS
The data set can be described thus: co-immunoprecipitation (IP anti-HA, immunoblot anti-Flag), HEK293 cells. The procedure:
Extraction of protein, IP, and Western blot analysis were performed according to methods described in the literature (Hamamoto R et al., S Nature cell biology 2004, 6(8): 731-40). Immunoblot analysis was carried out with anti-SMYD3 (Abcam, Cambridge, Mass.), anti-HA (Sigma, St Louis, Mo.), anti-Flag (Sigma), anti-GST (B D Pharmingen, San Diego, Calif.), anti-beta-actin (Sigma), or anti-phospho-Tyrosine (PY20; Sigma) antibodies. HRP-conjugated second antibody was used for the ECL Detection System (Amersham Biosciences, Piscataway, N.J.). Recombinant histone H3 and VEGFR1 (3108) were purchased from Upstate Biotechnology (Lake Placid, N.Y.) and Calbiochem (San Diego, Calif.), respectively.
Since VEGFR1 was methylated by SMYD3, the inventors investigated whether SMYD3 interacts with VEGFR1. The present inventors expressed Flag-tagged cytoplasmic regions of VEGFR1 together with HA-tagged SMYD3 in HEK293 cells. Immunoprecipitation with anti-HA antibody, and subsequent immunoblot analysis with anti-Flag antibody disclosed that SMYD3 associates with VEGFR1#1 (codons 800-1000) but not VEGFR1#2 or VEGFR1#3 (FIG. 3a). Consistently, IP with anti-Flag antibody and subsequent immunoblot analysis with anti-HA antibody corroborated the interaction between SMYD3 and VEGFR1#1 (FIG. 3a). […]

This note sets out measurements from US20100184088A1 (ONCOTHERAPY SCIENCE, published 2010).

B1: Flag-tagged wild-type SMYD3 (p3XFLAG-CMV-SMYD3) (protein)
chain: T3 sequence
For B1, the “in vitro MTase assay, methylation compared to recombinant histone H3” value in data set [1] is recorded as “Approximately three-fold higher methylation of VEGFR1#1 was detected as compared to recombinant histone H3 in vitro (data not shown)”.

B2: Flag-tagged SMYD3-delta 3 (codons 250-428) (enzyme)
chain: RKQLRDQYCFECDCFRCQTQDKDADMLTGDEQVWKEVQESLKKIEELKAHWKWEQVLAMCQAIISSNSERLPDINIYQLKVLDCAMDACINLGLLEEALFYGTRTMEPYRIFFPGSHPVRGVQVMKVGKLQLHQGMFPQAMKNLRLAFDIMRVTHGREHSLIEDLILLLEECDANIRAS
notes: Deleted form of SMYD3 lacking the SET domain; also called flag-SMYD3-D3; not shown: Flag tag
In the case of B2, in data set [2], the binding result is recorded as “no binding”.

B3: Flag-tagged VEGFR1#3 (codons 1200-1338) (receptor)
chain: APKFNSGSSDDVRYVNAFKFMSLERIKTFEELLPNATSMFDDYQGDSSTLLASPMLKRFTWTDSKPKASLKIDLRVTSKSKESGLSDVSRPSFCHSSCGHVSEGKRRFTYDHAELERKIACCSPPPDYNSVVLYSTPPI
notes: Cytoplasmic fragment of VEGFR1 expressed in HEK293 cells; also called flag-VEGFR1#3; not shown: Flag tag (3xFlag vector)
Take B3: in data set [3], the binding result is recorded as “no binding”.

B4: Flag-tagged VEGFR1#2 (codons 1000-1200) (receptor)
chain: ISYSFQVARGMEFLSSRKCIHRDLAARNILLSENNVVKICDFGLARDIYKNPDYVRKGDTRLPLKWMAPESIFDKIYSTKSDVWSYGVLLWEIFSLGGSPYPGVQMDEDFCSRLREGMRMRAPEYSTPEIYQIMLDCWHRDPKERPRFAELVEKLGDLLQANVQQDGKDYIPINAILTGNSGFTYSTPAFSEDFFKESISA
notes: Cytoplasmic fragment of VEGFR1 expressed in HEK293 cells; also called flag-VEGFR1#2; not shown: Flag tag (3xFlag vector)
Turning to B4, in data set [3], the binding result is given as “no binding”.
